Test results: IntAct's records for PubMed 19497856

B1: Homeobox protein SIX1 (Homo sapiens), Q15475 (parent)
chain: MSMLPSFGFTQEQVACVCEVLQQGGNLERLGRFLWSLPACDHLHKNESVLKAKAVVAFHRGNFRELYKILESHQFSPHNHPKLQQLWLKAHYVEAEKLRGRPLGAVGKYRVRRKFPLPRTIWDGEETSYCFKEKSRGVLREWYAHNPYPSPREKRELAEATGLTTTQVSNWFKNRRQRDRAAEAKERENTENNNSSSNKQNQLSPLEGGKPLMSSSEEEFSPPQSPDQNSVLLLQGNMGHARSSNYSLPGLTASQPSHGLQTHQHQLQDSLLGPLTSSLVDLGS
partner: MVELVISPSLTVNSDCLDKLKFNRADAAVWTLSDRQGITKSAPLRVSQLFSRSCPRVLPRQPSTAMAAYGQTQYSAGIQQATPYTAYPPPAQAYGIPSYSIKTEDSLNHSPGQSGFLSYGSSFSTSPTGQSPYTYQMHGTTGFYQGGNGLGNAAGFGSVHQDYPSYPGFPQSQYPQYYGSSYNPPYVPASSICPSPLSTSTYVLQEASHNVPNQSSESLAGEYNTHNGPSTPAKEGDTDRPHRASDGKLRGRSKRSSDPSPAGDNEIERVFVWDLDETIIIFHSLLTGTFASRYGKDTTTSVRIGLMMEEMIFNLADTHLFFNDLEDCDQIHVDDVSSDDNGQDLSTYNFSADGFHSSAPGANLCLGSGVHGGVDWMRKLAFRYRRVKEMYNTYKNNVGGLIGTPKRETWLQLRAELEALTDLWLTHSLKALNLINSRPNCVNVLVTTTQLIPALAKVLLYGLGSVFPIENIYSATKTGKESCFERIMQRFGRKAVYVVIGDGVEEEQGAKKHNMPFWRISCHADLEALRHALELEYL

Variants of: B1
Details: with eya2_human EYA2, O00167

Row | Variant | effect of a mutation on the interaction
1 | V17E | decreasing interaction strength
